Assay results as given in US20140212427A1 (published 2014).
Blank lines part the entries; values can stand above or below the binder they belong to.

Target: human properdin (UniProt P27918 28-469)
Experiment: Biacore SPR

human properdin, sequence (P27918 28-469): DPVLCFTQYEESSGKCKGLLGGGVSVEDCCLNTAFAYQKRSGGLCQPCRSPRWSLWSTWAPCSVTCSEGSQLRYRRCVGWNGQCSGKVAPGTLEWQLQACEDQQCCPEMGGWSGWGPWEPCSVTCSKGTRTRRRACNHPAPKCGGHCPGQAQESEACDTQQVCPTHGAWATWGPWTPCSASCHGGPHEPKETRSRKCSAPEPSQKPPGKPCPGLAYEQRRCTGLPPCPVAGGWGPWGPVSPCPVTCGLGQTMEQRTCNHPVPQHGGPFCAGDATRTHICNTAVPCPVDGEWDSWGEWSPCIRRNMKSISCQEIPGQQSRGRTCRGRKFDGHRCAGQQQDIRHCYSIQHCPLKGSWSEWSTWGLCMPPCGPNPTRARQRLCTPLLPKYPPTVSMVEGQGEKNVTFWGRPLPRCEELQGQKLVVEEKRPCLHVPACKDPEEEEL

Kd: 0.58 nM
B1: humanized 19.1 mAb with heavy chain variable region humanized 19.1 VH-4-59-01 (antibody, V domains shown)
VH: QVQLQESGPGLVKPSETLSLTCTVSGFSLTTYGVHWIRQPPGKGLEWIGVIWSGGDTDYNASFISRVTISVDTSKNQFSLKLSSVTAADTAVYYCARNKDYYTNYDFTMDYWGQGTTVTVSS
VL: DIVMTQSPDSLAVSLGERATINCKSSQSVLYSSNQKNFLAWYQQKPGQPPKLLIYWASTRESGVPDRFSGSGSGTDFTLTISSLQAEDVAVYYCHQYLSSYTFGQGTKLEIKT

Kd: 0.47 nM
B2: humanized 19.1 mAb with heavy chain variable region humanized 19.1 VH-3-66-04 (antibody, V domains shown)
VH: EVQLVESGGGLVQPGGSLRLSCAASGFSLTTYGVHWVRQAPGKGLEWVSVIWSGGDTDYNASFISRFTISRDNSKNTLYLQMNSLRAEDTAVYYCARNKDYYTNYDFTMDYWGQGTTVTVSS
VL: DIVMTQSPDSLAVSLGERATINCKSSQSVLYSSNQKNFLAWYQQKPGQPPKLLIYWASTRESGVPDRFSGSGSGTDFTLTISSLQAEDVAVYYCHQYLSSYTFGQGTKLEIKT

Kd: 0.00284 nM
B3: mAb 19.1 (antibody, V domains shown)
VH: QVQLKQSGPGLVQPSQSLSISCTVSGFSLTTYGVHWVRQSPGKGLEWLGVIWSGGDTDYNASFISRLRINKDTSKSQVFFKMNSLQADDTAYYCARNKDYYTNYDFTMDYWGQGTSVTVSS
VL: NIMMTQSPSSLAVSAGEKVTMSCKSSQSVLYSSNQKNFLAWYQQKPGQSPKLLIYWASTRESGVPDRFTGSGSGTDFILTINSVQVEDQAVYYCHQYLSSYTFGGGTKLEIK

Kd: 0.00289 nM
B4: chimeric 19.1 mAb (antibody, V domains shown)
VH: B3 VH
VL: NIMMTQSPSSLAVSAGEKVTMSCKSSQSVLYSSNQKNFLAWYQQKPGQSPKLLIYWASTRESGVPDRFTGSGSGTDFILTINSVQVEDQAVYYCHQYLSSYTFGGGTKLEIKT
